Measurements as given in article PMC2173848.

Biological target: GST-Ypt1p (S. cerevisiae) (UniProt P01123)
Assay: pull-down

Sequence of GST-Ypt1p (S. cerevisiae) (P01123 whole entry): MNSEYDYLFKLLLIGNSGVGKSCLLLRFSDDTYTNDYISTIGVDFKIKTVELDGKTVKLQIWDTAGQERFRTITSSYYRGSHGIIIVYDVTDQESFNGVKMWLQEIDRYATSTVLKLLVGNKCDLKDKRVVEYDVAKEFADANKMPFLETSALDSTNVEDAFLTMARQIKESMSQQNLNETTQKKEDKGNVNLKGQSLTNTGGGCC

With “purified Sec34/35 complex, P40094 1-801; P53271 1-262; Q06096 1-861; P53079 1-417; P53959 1-839” the fold less binding than with GTP-loaded GST-Ypt1p was > 5 fold and the percent of the complex bound was > 50%.
